The target of the experiment is T1, M2 muscarinic acetylcholine receptor (M2AchR) (Rattus norvegicus, UniProt P10980).
T1 construct: expressed in transfected cells; host or cells: HEK-293
T1 sequence (P10980 1-466): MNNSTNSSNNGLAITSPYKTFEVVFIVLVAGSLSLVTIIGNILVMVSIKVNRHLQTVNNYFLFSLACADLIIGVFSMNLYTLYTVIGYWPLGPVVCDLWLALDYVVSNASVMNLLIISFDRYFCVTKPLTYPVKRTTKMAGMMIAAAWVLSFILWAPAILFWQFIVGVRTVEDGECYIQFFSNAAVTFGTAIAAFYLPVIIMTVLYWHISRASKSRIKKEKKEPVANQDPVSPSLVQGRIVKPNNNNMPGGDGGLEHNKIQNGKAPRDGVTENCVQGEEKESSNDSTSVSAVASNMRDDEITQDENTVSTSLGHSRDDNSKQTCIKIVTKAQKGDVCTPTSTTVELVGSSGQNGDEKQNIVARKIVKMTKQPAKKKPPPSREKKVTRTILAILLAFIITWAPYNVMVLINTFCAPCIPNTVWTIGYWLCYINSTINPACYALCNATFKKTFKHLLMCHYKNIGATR
Briefly: CRE-SEAP reporter gene assay, coupling of Gαs-based chimeric G proteins with M2AchR (transient). The class given is cell-based. Conditions: HEK-293 cells; 10 uM acetylcholine. On the procedure:
The constructs encoding chimeric G proteins were made by substituting C-terminal amino acids of Gαs (SEQ ID NO: 1) with the corresponding C-terminal amino acid sequences of other Gα subunits. A first set of Gαs-based chimeric G proteins was prepared by designing constructs encoding seven Gαs-Gαi chimeras in which the C-terminal 5, 11, 13, 28, 65, 84, or 131 amino acids of Gαs were substituted with the corresponding C-terminal amino acids from the […]. Briefly, HEK-293 cells were cotransfected with chimera constructs together with the CRE-SEAP reporter gene construct and a cDNA encoding the M2 muscarinic acetylcholine receptor (M2AchR), a GPCR that couples to Gαo but not to Gαs and inhibits cAMP production. The transfected cells were cultured in the presence or absence of acetylcholine and then assayed for SEAP activity.
A series of chimeric constructs were prepared in which the final 13 C-terminal amino acids of the Gαs subunit were substituted with the final 13 C-terminal amino acids from Gαo, Gαz, Gαt, Gαq, or Gα15 subunits. Also tested were the Gαs-Gαi-13 and a chimera containing the last 5 C-terminal amino acids of Gαk (Gαs-Gαk-5 (SEQ ID NO: 2)). These chimeric constructs were tested for coupling with M2AchR. […] The Gαs-Gαo-13 (SEQ ID NO: […]) and Gαs-Gα15-13 (SEQ ID NO: 7) allowed approximately 2-fold increases in SEAP activity.
Chimeric G protein cloning: An insert containing rat Gαs cDNA was cut out using the restriction enzymes SaII and HinDIII, and ligated into pcDNA3.1(−) cut with XhoI and HinDIII. The chimeric G proteins with the desired C-terminal amino acid substitutions were prepared by PCR using Gαs as a template. More specifically, Gαs was PCR amplified between an internal EcoRI site and the stop codon, with a 3′ HinDIII placed immediately after the stop codon. A different 3′ oligonucleotide was used for each Gαs chimera and contained a 39 bp sequence that encoded the substituted amino acids at the C-terminus selected from the donor Gα subunit.
M2AchR GPCR cloning: Rat M2AchR receptor was cloned by PCR from cDNA templates (ATCC) and ligated into pcDNA 3.1(−) for expression in mammalian cells.
CRE-SEAP Reporter Gene Assay: 0.5×10^5 HEK-293 cells (ATCC) were seeded into each well of a 96 well plate 24 hours prior to transfection. cDNAs encoding M2AchR, SEAP reporters (Mercury Pathway Profiling System, BD Biosciences), and G protein chimeras were transfected into HEK-293 cells using lipofectamine reagent (Invitrogen) according to the manufacturer's protocols. […]
Following transfection, the cells were maintained for 48 hours in 200 ul serum free media containing 10 uM acetylcholine (Sigma). […] Fluorescence was then measured using a CytoFluor 4000 multi well plate reader (Applied Biosystems).
In general terms: A reporter such as luciferase makes a cellular process visible.

B1: Gαs-Gαt-13: Gαs-based chimeric G protein, final 13 C-terminal amino acids substituted with those of Gαt (protein)
chain: MGCLGNSKTEDQRNEEKAQREANKKIEKQLQKDKQVYRATHRLLLLGAGESGKSTIVKQMRILHVNGFNGEGGEEDVPDYASNSDGEKATKVQDIKNNLKEAIETIVAAMSNLVPPVELANPENQFRVDYILSVMNVPNFDFPPEFYEHAKALWEDEGVRACYERSNEYQLIDCAQYFLDKIDVIKQADYVPSDQDLLRCRVLTSGIFETKFQVDKVNFHMFDVGGQRDERRKWIQCFNDVTAIIFVVASSSYNMVIREDNQTNRLQEALNLFKSIWNNRWLRTISVILFLNKQDLLAEKVLAGKSKIEDYFPEFARYTTPEDATPEPGEDPRVTRAKYFIRDEFLRISTASGDGRHYCYPHFTCAVDTENIRRVFNDCRDIIIKENLKDCGLF
modifications: Chimeric protein
notes: Gαs-based chimeric G protein, final 13 C-terminal amino acids substituted with those of Gαt
For B1, the “ligand induced increases in SEAP activity mediated by M2AchR (in words)” value is listed as “highest responses”.
